Reference: patent US20040214230A1
One block for each binder: values may come before it.

Legend:
[1] = target: monoclonal antibody GR-1Ca; experiment: competitive EIA: GALP varied against HRP-labeled [Cys^43] rat GALP (43-60); GR-1Ca solution of 80 ng/ml on anti-mouse immunoglobulin plate
[2] = target: monoclonal antibody GR-2Ca; experiment: competitive EIA: GALP varied against HRP-labeled [Cys^43] rat GALP (43-60); GR-2Ca solution of 80 ng/ml on anti-mouse immunoglobulin plate

- IC50 [1]: 3 nM
- IC50 [2]: 10 nM
B1: rat GALP (peptide)
peptide: APAHRGRGGWTLNSAGYLLGPVLHLSSKANQGRKTDSALEILDLWKAIDGLPYSRSPRMT

- IC50 [1]: 7 nM
- IC50 [2]: 20 nM
B2: human GALP (peptide)
peptide: APAHRGRGGWTLNSAGYLLGPVLHLPQMGDQDGKRETALEILDLWKAIDGLPYSHPPQPS

- IC50 [1]: 8 nM
- IC50 [2]: 500 nM
B3: porcine GALP (peptide)
peptide: APVHRGRGGWTLNSAGYLLGPVLHPPSRAEGGGKGKTALGILDLWKAIDGLPYPQSQLAS
